Test results published in patent US20240226296A9, “ERT2 MUTANTS AND USES THEREOF” (Senti Biosciences, Inc., priority 2021, published 2024).
Positions count from the first letter of the chain named. Names may count otherwise.

B1: SB06142: L354I/L391V/N413D/M421L/S463P/M517A/H524L (protein)
chain: SAGDMRAANLWPSPLMIKRSKKNSLALSLTADQMVSALLDAEPPILYSEYDPTRPFSEASMMGLLTNLADREIVHMINWAKRVPGFVDLTLHDQVHLLECAWLEILMIGVVWRSMEHPVKLLFAPNLLLDRDQGKCVEGLVEIFDMLLATSSRFRMMNLQGEEFVCLKSIILLNSGVYTFLPSTLKSLEEKDHIHRVLDKITDTLIHLMAKAGLTLQQQHQRLAQLLLILSHIRHASNKGMELLYSMKCKNVVPLYDLLLEAADAHRLHAPTSRGGASVEETDQSHLATAGSTSSHSLQKYYITGEAEGFPATA
B2: SB06145: L409V/N413D/Q414E/M421L/S463P/H524L (protein)
chain: B1 chain with I73L, V110L, L128V, Q133E, A236M
B3: SB06136: L384M/L391V/N413D/M421L/S463P/H524L (protein)
chain: B1 chain with I73L, L103M, A236M

Assays:
[1] = following a typical clinical dose of tamoxifen; cited from earlier work
NK cells = experiment: Validation of ERT2 mutants with mCherry reporter in NK cells; assay type: cell-based; settings: primary NK cells
Protocol: After 10 days of feeder cell activation, NK cells were co-transduced with ERT2 mutant virus and reporter SB01066 virus (Experimental Set-up 1). On Day 2 after transduction, transduced NK cells were treated with endoxifen or 4-OHT at a range of concentrations of 0 nM, 0.01 nM, 0.1 nM, 1 nM, and 10 nM. On Day 4, cells were checked for mCherry expression by flow cytometry.

Molecule | average peak plasma concentration [1] | 4-OHT concentration at which variant is sensitive (NK cells) [nM] | endoxifen concentration at which variant is sensitive (NK cells) [nM]
CC/C(=C(\c1ccccc1)c1ccc(OCCN(C)C)cc1)c1ccccc1 [tamoxifen] | approximately 40 ng/mL |  | 
B1 |  | 0.1 | 0.1
B2 |  | 0.1 | 0.1
B3 |  | 0.1 | 0.1
